This is an account of results in patent US20140234868A1, “USE FOR GLYCOLIPOPROTEIN GINTONIN, ISOLATED AND IDENTIFIED FROM GINSENG, AS A NATURAL MEDICAL-PLANT DERIVED LIGAND” (KONKUK UNIVERSITY INDUSTRIAL COOPERATION CORP., priority 2011, published 2014).

One experiment concerns endogenous CaCC. Particulars: Xenopus oocytes; Pyo et al. 2011; cited from earlier work.
A further experiment has as its system HUVECs. The experiment is described as follows: Tubular formation of HUVECs on Matrigel. It is filed as cell-based, human. The settings on record: gintonin 30 μg/ml, 4 hrs. On the procedure: To examine the effect of gintonin on angiogenesis, formation of vascular tube-like structures on Matrigel was compared between the control and the gintonin-treated group (Kim et al. Biol Pharm Bull 30: 1674-1679).
Briefly, cells were incubated for 6 hrs in M199 (1% FBS). After trypsinization, the cells were suspended in M199 (1% FBS), and seeded (2×10^5 cells/well) to 24-well plates coated with Matrigel (250 μl/well).
The cells were incubated at 37° C. for 4 hrs in M199 (1% FBS) containing gintonin (30 μg/ml), and observed for tubular formation by inverted fluorescence microscopy (AxioVert200, Carl Zeiss).

Experiment [1] deals with mouse EAT (Ehrlich Ascites Tumor). The settings on record: mouse EAT cells; PLC-coupled pathway; cited from earlier work.
The target in the next experiment is T1, GPR35 (Homo sapiens, UniProt Q9HC97).
T1 construct: host or cells: B103 rat neuroblastoma cells
The experiment is described as follows: Intracellular free Ca2+ in GPR35-expressing B103 cells. It counts as cell-based. From the text:
(§1) Optionally, the method may further comprise (8) pre-treating the suspended B103 cells with LPA receptor antagonists and LPA receptor-mediated signaling-relevant drugs (e.g., pertussis toxin, PLC inhibitors, IP3 receptor antagonists) to examine whether the cells decrease or increase in intracellular free Ca^2+, prior to treatment with gintonin; (9) performing site-directed mutagenesis to identify an amino acid of LPA receptors with which gintonin interact to activate the LPA; and (10) examining whether gintonin activates orphan GPCRs including GPR35 and GPR87, and free fatty acid GPCRs including GPR40, GPR41, GPR43 and GPR120, all known for activation by LPA.
(§2) In addition, GPR35 (Oka et al., Biochem Biophys Res Commun. 395, 232-237, 2010) and GPR87 (Tabata et al., Biochem Biophys Res Commun. 363, 861-866, 2007), both known as orphan GPCRs reacting with LPA, and GPR40, GPR41, GPR43 and GPR120 (Hirasawa et al., Biol Pharm Bull. 31, 1847-1851, 2008), all known as fatty acid receptors reacting with free fatty acids, were expressed in B103 cells when gintonin activity was tested.

A further experiment addresses T2, LPA6 receptor (Homo sapiens, UniProt P43657).
T2 construct: host or cells: B103 rat neuroblastoma cells
T2 sequence (P43657 1-344): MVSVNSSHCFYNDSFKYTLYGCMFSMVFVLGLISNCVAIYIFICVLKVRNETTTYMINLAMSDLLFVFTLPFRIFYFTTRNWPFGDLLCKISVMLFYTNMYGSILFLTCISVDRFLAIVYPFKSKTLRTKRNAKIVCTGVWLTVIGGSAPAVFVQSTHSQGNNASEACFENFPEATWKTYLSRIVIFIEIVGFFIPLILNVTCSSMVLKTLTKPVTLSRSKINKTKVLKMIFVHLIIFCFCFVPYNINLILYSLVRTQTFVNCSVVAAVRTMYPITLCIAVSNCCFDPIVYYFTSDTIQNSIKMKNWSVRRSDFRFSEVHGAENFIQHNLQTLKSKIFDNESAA
The experiment is described as follows: Intracellular cAMP level in LPA6-expressing B103 cells. It counts as cell-based. From the text: After treatment with gintonin, B103 cells expressing LPA3 or LPA6 receptor were examined for change in intracellular cAMP level.
(In general: Changes in cAMP serve as a functional read-out for many G protein-coupled receptors.)

Experiment [2] concerns mutant NMDA receptor (S1312A). The experiment is described as follows: Gintonin-induced activation of mutant NMDA receptor S1312A in oocytes. It counts as cell-based. The method, then:
Two-electrode voltage-clamp recordings were obtained from individual oocytes placed in a small Plexiglas net chamber (5 ml). Electrophysiological experiments were performed using microelectrodes filled with 3 M KCl (resistance of 0.2-0.7 MΩ) and an Oocyte Clamp amplifier (OC-725C; Warner Instrument, Hamden, Conn.). For physiological recordings of NMDA receptor activity, oocytes were first perfused with Mg^2+-free ND96 (mM: 96 NaOH, 2 KOH, 0.3 CaCl2, 5 HEPES pH 7.6 with methanesulfonic acid). Then, the oocytes were clamped at −60 mV holding potential, followed by recoding NMDA currents (induced by administering […]) (Zheng et al., J Neurosci. 17, 8676-8686, 1997; Chang and Kuo, J Neurosci. 28, 1546-1556, 2008).
Thus, it is understood that gintonin stimulates PKC to phosphorylate the NMDA receptor at a specific site (S1308), and thus that gintonin-induced NMDA receptor activation is associated with PKC activity.

The subject of experiment [3] is GPR87, GPR40, GPR41, GPR43 and GPR120. The experiment is described as follows: Intracellular free Ca2+ in B103 cells expressing other orphan GPCRs and fatty acid receptors. It is filed as cell-based. Particulars: B103 cells expressing the other receptors (GPR87, GPR40, GPR41, GPR43, GPR120).
From the text: as §1, §2

For experiment [4], the target named is T3, mutant R3.28A LPA3 receptor (Homo sapiens, UniProt Q9UBY5, R105A).
T3 construct: expressed in transfected cells; host or cells: B103 rat neuroblastoma cells
T3 sequence (Q9UBY5 1-353 R105A): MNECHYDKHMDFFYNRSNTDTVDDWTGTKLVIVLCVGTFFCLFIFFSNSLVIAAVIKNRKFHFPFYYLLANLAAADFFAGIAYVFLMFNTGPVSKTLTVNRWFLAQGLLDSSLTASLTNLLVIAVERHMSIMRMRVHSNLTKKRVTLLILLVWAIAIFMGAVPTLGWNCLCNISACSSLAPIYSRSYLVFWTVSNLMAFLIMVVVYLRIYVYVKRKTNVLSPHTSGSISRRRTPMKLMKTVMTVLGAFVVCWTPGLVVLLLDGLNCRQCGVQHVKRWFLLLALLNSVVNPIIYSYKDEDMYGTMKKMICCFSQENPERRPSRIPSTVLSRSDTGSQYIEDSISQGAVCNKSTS
The experiment is described as follows: Intracellular Ca2+ in B103 cells with mutant R3.28A LPA3 receptor. It is filed as cell-based. Particulars: R3.28A LPA3 receptor-transfected B103 cells. From the text:
That is, LPA receptors have specific amino acid residues, known as binding sites, which are responsible for interaction with LPA, and the binding of LPA to the specific amino acids starts to exert the function. This Example was configured to examine a change in the gintonin-induced intracellular calcium increase through LPA receptor activation in LPA3 receptor-expressing cells when specific amino acids of the LPA binding site in LPA receptors were mutated.
To this end, a mutant LPA receptor in which Arg3.28, known as a common LPA binding site of LPA1-LPA3 receptors, was mutated as Arg3.28Ala (that is, Arg is substituted by Ala; R3.28A) or Trp4.64, known as an LPA-binding site of LPA3 receptor was mutated as Trp4.64Ala (that is, Tip is substituted by Ala; W4.64A) (Valentine et al., J. Biol. Chem. 283, 12175-12187, 2008) was transfected to B103 cells which were then tested for the action of gintonin, in comparison with cells transfected with the wild-type. […] From the result, it is henceforth understood that the gintonin-triggered LPA receptor activation is achieved by interaction with the LPA binding sites of LPA receptors and that gintonin occupies the LPA binding sites to activate LPA receptors.

T1 sequence (Q9HC97 whole entry): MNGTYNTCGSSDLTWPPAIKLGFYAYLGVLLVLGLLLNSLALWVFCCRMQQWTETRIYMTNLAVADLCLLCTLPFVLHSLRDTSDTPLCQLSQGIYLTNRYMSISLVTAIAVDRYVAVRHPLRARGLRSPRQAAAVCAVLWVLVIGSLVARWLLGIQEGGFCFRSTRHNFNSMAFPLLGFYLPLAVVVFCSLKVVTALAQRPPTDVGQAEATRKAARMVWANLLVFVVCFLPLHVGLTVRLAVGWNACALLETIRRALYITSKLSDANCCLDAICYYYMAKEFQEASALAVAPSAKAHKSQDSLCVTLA

B1: gintonin: ginseng-derived glycolipoprotein; structural protein of ginseng major latex-like protein (MLP151) and ribonuclease-like storage proteins; crude gintonin used in tests (protein)
chain 1: MGLTGKLICQTGIKSDGDVFHELFGTRPHHVPNITPANIQGCDLHEGEFGKVGSVVIWNYSIDGNAMIAKEEIVAIDEEDKSVTFKVVEGHLFEEFKSIVFSVHVDTKGEDNLVTWSIDYEKLNESVKDPTSYLDFLLSVTRDIEAHHLPK
chain 2: RSDYPWAMFALRLQWPAGFCEVNNACDTKSLLNTFTIHGLYPYNAKGTPALYCDGTAFDVNSVSDFLAEMHLAWPSHETNTEDIQFWEHEWKKHGRCSEALLKQTDYFRTALAFRKAFDIVGLLNQEGIYPNNDLYRPKMIKEAIKKHLNAVPEIDFTKNENSEYVLTDINVCVNQQATRFVDCPTDDATDDYRLKFVRLPSKMKFADPRTNSII
As for B1, the CaCC activation entry in the experiment on endogenous CaCC is recorded as “activate endogenous Ca^2+-activated channel (CaCC)”. Also, the tubular formation result in the experiment on HUVECs is “promoted tubular formation”. In addition, in experiment [1], the “transient increase in cytoplasmic free Ca2+ level” value is “induces a transient increase in cytoplasmic free Ca^2+ level”. Besides, the “increase of intracellular calcium level” value with GPR35 is “increase an intracellular calcium level in GPR35-expressing B103 cells, but slightly”; in experiment [3], “not act on the other receptors”. Also, in the experiment with LPA6 receptor, the “change in intracellular cAMP level” value was “no influences on intracellular cAMP level”. Further, the “gintonin-induced NMDA receptor activation” value in experiment [2] was “maintained gintonin-induced NMDA receptor activation”. Besides, the “gintonin-induced intracellular calcium increase vs wild-type” value in experiment [4] was “greatly reduced”.
